# Source: patent US20240336907A1, “NOVEL ENDO-ß-N-ACETYLGLUCOSAMINIDASE” (priority 2020, published 2024)
# Residue numbers refer to the chain shown, from its start. Numbers in names are those of the source.
# B1: Endo-Si T190Q (protein)
# chain: MNKRLLVKRTFGCVCAAAILGVAPLSHPTIVEAREELKMPNGLEQSIADVEAKIDALTYLSKNSKDEFKHSMYEIPSNREHKPVSPKQALQNAKKADAQAERLAKMTIPKKEELKALEGPLYGGYFRTWQDKTSDPTETNKVNSFGELPKEVDLAFVFHDYTKDYSLFWEELATKQVPKLNKQGTRVIRQIPWRFLSGADHSDISADKEKFPNTEAGNKALAKAIVDEYVYKYNLDGLDIDIERDSVPKVNDKEDPEALARTVEVFKEIGKLIGANGADKSRLLIMDTTYTAEENPLIKETAQYLNLLLVQVYGFSGENGNYLHHKNILDETSSMEGRWQGYSKYIRPEQYMVGFSFYEEKDFNNRWKDINEEDPSDPHIGEKIQGTRAERYAKWQPKTGGLKGGLFSYAIDRDGVAQPKQKTEHPELDKIVKSEYKVSKALKKLMMTDDQYQPIDQSDFPDKALRESIIKQVGTRRGDLERFKGTLRLDNPEIKDLTGLNKLKRVAKLELINLPKITKIDKDDLPQNLKPLTDNQKSNLEIKGTYDDSKLYKDIPAFDLVISGLSGLESLDISGHQRDTLSGIDASTLPSLKAINISDNHFDLAQGTENRHILDTILATLAKNGASTASFDKQKPKGLYPESYSTAPLHLQVGQGKINVIDDLIFGTRTNQNTLINTENDFEAYKEQTIQGKPFIAPDYLYDNFKVSYKEYSASIVDSTLAETTDKTIDTAKAETYQVTVSNKDGKTVHSVKVIVGDEKPMMVNLAQDAKIIGTDNMTQSAKVFDGQKDQFLLSWNKDSSVIFELKTPGTAKHWRFFDDGKNDSVTLSVFKGDASNFETEKDKAENWVEITKDSRKNDDKVFSSPLEVDNAKYLKVTIKKEAKYIYFNELQILGYPGVVAKKTADDLRPTEADKSDDKSDKNDTEAK
# modifications: Amino acid sequence of Endo-Si T190Q
# B2: Endo-Si T190Q/D241M (protein)
# chain: B1 chain with D241M
# modifications: Amino acid sequence of Endo-Si T190Q/D241M
# B3: Endo-Si T190Q/D241Q (protein)
# chain: B1 chain with D241Q
# modifications: Amino acid sequence of Endo-Si T190Q/D241Q
# B4: Endo-Si D241Q/E360Q (protein)
# chain: B1 chain with Q190T, D241Q, E360Q
# modifications: Amino acid sequence of Endo-Si D241Q/E360Q
# B5: Endo-Si D241M/E360Q (protein)
# chain: B1 chain with Q190T, D241M, E360Q
# modifications: Amino acid sequence of Endo-Si D241M/E360Q
# B6: Endo-Si D241Q/Q311L (protein)
# chain: B1 chain with Q190T, D241Q, Q311L
# modifications: Amino acid sequence of Endo-Si D241Q/Q311L
# B7: Endo-Si D241Q (protein)
# chain: B1 chain with Q190T, D241Q
# modifications: Amino acid sequence of Endo-Si D241Q
# B8: Endo-Si D241M/Q311L (protein)
# chain: B1 chain with Q190T, D241M, Q311L
# modifications: Amino acid sequence of Endo-Si D241M/Q311L
# B9: Endo-Si D241M (protein)
# chain: B1 chain with Q190T, D241M
# modifications: Amino acid sequence of Endo-Si D241M
# Test system: (Fucα1,6)GlcNAc-mAb2
# Assay: Transglycosylation activity with SGP as donor, in combination with Endo-M N175Q
# Format: biochemical
# Settings: 2 h; donor SGP (50 eq.), Endo-M N175Q 2.5 mU, Endo-Si enzyme 10 μg, 23° C., pH 7.5
# Experimental: Transglycosylation activity was evaluated as follows. A 50 mM (sodium) phosphate buffer (pH 7.5) solution (17 μL) containing (Fucα1,6)GlcNAc-mAb2 (0.5 mg), SGP (0.485 mg (50 eq.)), Endo-M N175Q (manufactured by Tokyo Kasei Kogyo Co., Ltd.) (2.5 mU) and each of various Endo-Si mutant enzymes (10 μg), was prepared and incubated at 23° C. A sample was taken from each of the reaction solutions at 2, 4, 6, 24, and 48 hours after initiation of the reaction and analyzed for protein by a fully automated electrophoresis system as mentioned above. In the chromatogram obtained, an unreacted product and a transglycosylated molecule, mAb2-(SG)2 are confirmed as discrete peaks. The transglycosylation rates were obtained based on the peak area ratio between the unreacted product and the transglycosylated molecule in accordance with the following expression.
# Similarly, transglycosylation rates of individual Endo-Si mutant enzymes at each time period of a reaction were calculated (Table 6).
row,Molecule,Transglycosylation rate
1,B1,13.3%
2,B2,3.1%
3,B3,4.9%
4,B4,8.9%
5,B5,11.9%
6,B6,2.6%
7,B7,15.9%
8,B8,6.4%
9,B9,12.8%

# Same assay, conditions: 4 h; donor SGP (50 eq.), Endo-M N175Q 2.5 mU, Endo-Si enzyme 10 μg, 23° C., pH 7.5
row,Molecule,Transglycosylation rate
1,B1,27.8%
2,B2,6.4%
3,B3,10.6%
4,B4,20.0%
5,B5,27.7%
6,B6,5.6%
7,B7,35.6%
8,B8,13.7%
9,B9,27.9%

# Same assay, conditions: 6 h; donor SGP (50 eq.), Endo-M N175Q 2.5 mU, Endo-Si enzyme 10 μg, 23° C., pH 7.5
row,Molecule,Transglycosylation rate
1,B1,43.2%
2,B2,13.8%
3,B3,21.4%
4,B4,30.3%
5,B5,42.7%
6,B6,8.2%
7,B7,52.3%
8,B8,24.1%
9,B9,40.5%

# Same assay, conditions: 24 h; donor SGP (50 eq.), Endo-M N175Q 2.5 mU, Endo-Si enzyme 10 μg, 23° C., pH 7.5
row,Molecule,Transglycosylation rate
1,B1,93.8%
2,B2,50.7%
3,B3,71.5%
4,B4,94.4%
5,B5,98.0%
6,B6,48.6%
7,B7,98.1%
8,B8,79.7%
9,B9,96.5%

# Same assay, conditions: 48 h; donor SGP (50 eq.), Endo-M N175Q 2.5 mU, Endo-Si enzyme 10 μg, 23° C., pH 7.5
row,Molecule,Transglycosylation rate
1,B1,93.3%
2,B2,77.5%
3,B3,92.5%
4,B4,98.5%
5,B5,98.7%
6,B6,76.3%
7,B7,98.5%
8,B8,97.0%
9,B9,96.8%

# Test system: (Fucα1,6)GlcNAc-mAb2
# Assay: Transglycosylation activity with sugar chain oxazoline [N3-PEG(3)]-MSG1(9)-Ox as donor
# Format: biochemical
# Settings: 1 h; donor [N3-PEG(3)]-MSG1(9)-Ox (8 eq.), enzyme 1.25 μg, 28° C., pH 7.5
# Experimental: Transglycosylation activity was evaluated as follows. […] A sample was taken from each of the reaction solutions at 1, 2, 4, 6, and 24 hours after initiation of the reaction and analyzed for protein by a fully automated electrophoresis system as mentioned above. In the chromatogram obtained, an unreacted product and transglycosylated molecule, mAb2-(MSG1-N3)2 were confirmed as discrete peaks. The transglycosylation rate was calculated based on the peak-area ratio between the unreacted product and the transglycosylated molecule in accordance with the following expression.
# Transglycosylation rate (%)=[[peak area of mAb2-(MSG1-N3)2-derived H chain]/{[peak area of (Fucα1,6)GlcNAc-mAb2-derived H chain]+[peak area of mAb2-(MSG1-N3)2-derived H chain]}]×100
# Similarly, the transglycosylation rates of individual Endo-Si mutant enzymes at each time period for a reaction were calculated (Table 5).
row,Molecule,Transglycosylation rate
1,B1,97.2%
2,B2,43.5%
3,B3,26.6%
4,B4,73.5%
5,B5,99.1%
6,B6,5.7%
7,B7,75.2%
8,B8,31.8%
9,B9,98.8%

# Same assay, conditions: 2 h; donor [N3-PEG(3)]-MSG1(9)-Ox (8 eq.), enzyme 1.25 μg, 28° C., pH 7.5
row,Molecule,Transglycosylation rate
1,B1,91.8%
2,B2,64.1%
3,B3,48.4%
4,B4,96.8%
5,B5,99.0%
6,B6,11.6%
7,B7,97.0%
8,B8,59.1%
9,B9,98.9%

# Same assay, conditions: 4 h; donor [N3-PEG(3)]-MSG1(9)-Ox (8 eq.), enzyme 1.25 μg, 28° C., pH 7.5
row,Molecule,Transglycosylation rate
1,B1,81.8%
2,B2,92.7%
3,B3,83.3%
4,B4,99.0%
5,B5,96.2%
6,B6,27.4%
7,B7,99.1%
8,B8,95.9%
9,B9,97.4%

# Same assay, conditions: 6 h; donor [N3-PEG(3)]-MSG1(9)-Ox (8 eq.), enzyme 1.25 μg, 28° C., pH 7.5
row,Molecule,Transglycosylation rate
1,B1,76.7%
2,B2,98.7%
3,B3,96.1%
4,B4,99.6%
5,B5,95.5%
6,B6,44.4%
7,B7,99.6%
8,B8,99.5%
9,B9,97.5%

# Same assay, conditions: 24 h; donor [N3-PEG(3)]-MSG1(9)-Ox (8 eq.), enzyme 1.25 μg, 28° C., pH 7.5
row,Molecule,Transglycosylation rate
1,B1,32.6%
2,B2,99.6%
3,B3,99.6%
4,B4,98.9%
5,B5,75.9%
6,B6,99.3%
7,B7,98.8%
8,B8,99.9%
9,B9,75.0%
